Test results reported in paper PMC10786891, “Massively parallel profiling of RNA-targeting CRISPR-Cas13d”.

T1: EsCas13d, nuclease-dead (Eubacterium siraeum, UniProt B0MS50, R295A;H300A;R849A;H854A)
T1 sequence: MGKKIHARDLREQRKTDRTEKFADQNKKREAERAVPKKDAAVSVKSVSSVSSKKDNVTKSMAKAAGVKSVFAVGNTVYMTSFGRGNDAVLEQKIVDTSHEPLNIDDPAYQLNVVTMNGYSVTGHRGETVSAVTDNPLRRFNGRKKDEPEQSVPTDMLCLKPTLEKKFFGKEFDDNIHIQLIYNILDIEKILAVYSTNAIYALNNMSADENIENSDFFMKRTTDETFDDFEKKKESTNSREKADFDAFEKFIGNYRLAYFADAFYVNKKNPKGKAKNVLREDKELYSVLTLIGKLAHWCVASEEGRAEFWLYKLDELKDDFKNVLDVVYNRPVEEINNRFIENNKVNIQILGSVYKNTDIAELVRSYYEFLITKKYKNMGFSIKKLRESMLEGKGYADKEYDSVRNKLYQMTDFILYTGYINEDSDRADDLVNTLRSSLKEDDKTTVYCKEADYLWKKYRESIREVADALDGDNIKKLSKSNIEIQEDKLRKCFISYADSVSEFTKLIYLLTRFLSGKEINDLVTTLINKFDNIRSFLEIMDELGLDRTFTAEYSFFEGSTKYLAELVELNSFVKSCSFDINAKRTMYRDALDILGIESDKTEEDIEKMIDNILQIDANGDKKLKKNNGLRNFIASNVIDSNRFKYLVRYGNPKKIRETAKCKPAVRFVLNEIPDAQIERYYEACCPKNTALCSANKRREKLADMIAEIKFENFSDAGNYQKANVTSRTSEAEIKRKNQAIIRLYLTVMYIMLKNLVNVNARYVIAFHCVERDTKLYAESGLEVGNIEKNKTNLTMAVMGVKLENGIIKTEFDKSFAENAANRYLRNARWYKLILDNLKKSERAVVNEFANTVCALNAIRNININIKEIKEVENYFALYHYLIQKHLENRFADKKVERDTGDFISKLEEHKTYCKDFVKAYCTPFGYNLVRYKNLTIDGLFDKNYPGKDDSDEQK


Target: T1, EsCas13d, nuclease-dead
Assay: crRNA (strand 1, pre-loaded); Mg2+; 40 mM Tris-HCl pH 7.5, 150 mM NaCl, 6 mM MgCl2, 1 mM DTT, 0.1% Tween-20, 0.2 mg/ml BSA; 25 C; 10 min per concentration, then washed
Details: tags: His6-TwinStrep-SUMO cleaved; N-terminal SNAP kept (SNAP-Surface 488); label: 3' end held by stalled T7 RNA polymerase

Binder	Kd [nM]
target 1 insG 3' of 14,insA 3' of 4 (mixed) RNA 1: CACCCGUGCAAAAAUGCAGGGGUCUAAAACUGAGCGGAUAACCUCUCUAUGG RNA 2: GGGAAUGGAUCCACAUCUACGAAUUCGUACCAUAGAGAGGGUUAUCCGCAUCACCGAGAUCGGAAGAGCACACGU	12.2 ± 1.4
target 1 C7G,A18C (mixed) RNA 1: CACCCGUGCAAAAAUGCAGGGGUCUAAAACUGAGCGGAUAACCUCUCUAUGG RNA 2: GGGAAUGGAUCCACAUCUACGAAUUCGUACCAUCGAGAGGUUAUGCGCUCACCGAGAUCGGAAGAGCACACGU	81 ± 11
target 1 G5C,U11C (mixed) RNA 1: CACCCGUGCAAAAAUGCAGGGGUCUAAAACUGAGCGGAUAACCUCUCUAUGG RNA 2: GGGAAUGGAUCCACAUCUACGAAUUCGUACCAUAGAGAGGCUAUCCCCUCACCGAGAUCGGAAGAGCACACGU	16.8 ± 1.1
target 1 insG 3' of 14,insG 3' of 7 (mixed) RNA 1: CACCCGUGCAAAAAUGCAGGGGUCUAAAACUGAGCGGAUAACCUCUCUAUGG RNA 2: GGGAAUGGAUCCACAUCUACGAAUUCGUACCAUAGAGAGGGUUAUCGCGCUCACCGAGAUCGGAAGAGCACACGU	6.8 ± 0.28
target 1 U8C,G15C (mixed) RNA 1: CACCCGUGCAAAAAUGCAGGGGUCUAAAACUGAGCGGAUAACCUCUCUAUGG RNA 2: GGGAAUGGAUCCACAUCUACGAAUUCGUACCAUAGACAGGUUACCCGCUCACCGAGAUCGGAAGAGCACACGU	68 ± 11
target 1 C4A,C21U (mixed) RNA 1: CACCCGUGCAAAAAUGCAGGGGUCUAAAACUGAGCGGAUAACCUCUCUAUGG RNA 2: GGGAAUGGAUCCACAUCUACGAAUUCGUACUAUAGAGAGGUUAUCCGAUCACCGAGAUCGGAAGAGCACACGU	4.4 ± 0.7
target 1 insA 3' of 12,insG 3' of 6 (mixed) RNA 1: CACCCGUGCAAAAAUGCAGGGGUCUAAAACUGAGCGGAUAACCUCUCUAUGG RNA 2: GGGAAUGGAUCCACAUCUACGAAUUCGUACCAUAGAGAGGAUUAUCCGGCUCACCGAGAUCGGAAGAGCACACGU	28 ± 4
target 1 A1U,U19C (mixed) RNA 1: CACCCGUGCAAAAAUGCAGGGGUCUAAAACUGAGCGGAUAACCUCUCUAUGG RNA 2: GGGAAUGGAUCCACAUCUACGAAUUCGUACCACAGAGAGGUUAUCCGCUCUCCGAGAUCGGAAGAGCACACGU	22.2 ± 1.6
target 1 insC 3' of 14,insG 3' of 6 (mixed) RNA 1: CACCCGUGCAAAAAUGCAGGGGUCUAAAACUGAGCGGAUAACCUCUCUAUGG RNA 2: GGGAAUGGAUCCACAUCUACGAAUUCGUACCAUAGAGACGGUUAUCCGGCUCACCGAGAUCGGAAGAGCACACGU	54 ± 6
target 1 insU 3' of 13,insG 3' of 3 (mixed) RNA 1: CACCCGUGCAAAAAUGCAGGGGUCUAAAACUGAGCGGAUAACCUCUCUAUGG RNA 2: GGGAAUGGAUCCACAUCUACGAAUUCGUACCAUAGAGAGUGUUAUCCGCUGCACCGAGAUCGGAAGAGCACACGU	14.4 ± 1.9
target 1 insA 3' of 8,insU 3' of 6 (mixed) RNA 1: CACCCGUGCAAAAAUGCAGGGGUCUAAAACUGAGCGGAUAACCUCUCUAUGG RNA 2: GGGAAUGGAUCCACAUCUACGAAUUCGUACCAUAGAGAGGUUAUACCUGCUCACCGAGAUCGGAAGAGCACACGU	23.5 ± 1.4
target 1 insA 3' of 13,insG 3' of 11 (mixed) RNA 1: CACCCGUGCAAAAAUGCAGGGGUCUAAAACUGAGCGGAUAACCUCUCUAUGG RNA 2: GGGAAUGGAUCCACAUCUACGAAUUCGUACCAUAGAGAGAGUGUAUCCGCUCACCGAGAUCGGAAGAGCACACGU	13.2 ± 0.8
target 1 insG 3' of 20,insU 3' of 18 (mixed) RNA 1: CACCCGUGCAAAAAUGCAGGGGUCUAAAACUGAGCGGAUAACCUCUCUAUGG RNA 2: GGGAAUGGAUCCACAUCUACGAAUUCGUACCAGUAUGAGAGGUUAUCCGCUCACCGAGAUCGGAAGAGCACACGU	65 ± 15
target 1 insU 3' of 20,insA 3' of 10 (mixed) RNA 1: CACCCGUGCAAAAAUGCAGGGGUCUAAAACUGAGCGGAUAACCUCUCUAUGG RNA 2: GGGAAUGGAUCCACAUCUACGAAUUCGUACCAUUAGAGAGGUUAAUCCGCUCACCGAGAUCGGAAGAGCACACGU	19.4 ± 1.1
target 1 insC 3' of 22,insC 3' of 13 (mixed) RNA 1: CACCCGUGCAAAAAUGCAGGGGUCUAAAACUGAGCGGAUAACCUCUCUAUGG RNA 2: GGGAAUGGAUCCACAUCUACGAAUUCGUACCCAUAGAGAGCGUUAUCCGCUCACCGAGAUCGGAAGAGCACACGU	43 ± 15
target 1 insA 3' of 2,insG 3' of 1 (mixed) RNA 1: CACCCGUGCAAAAAUGCAGGGGUCUAAAACUGAGCGGAUAACCUCUCUAUGG RNA 2: GGGAAUGGAUCCACAUCUACGAAUUCGUACCAUAGAGAGGUUAUCCGCUCAAGCCGAGAUCGGAAGAGCACACGU	8.6 ± 0.6
target 1 insA 3' of 2,insC 3' of 1 (mixed) RNA 1: CACCCGUGCAAAAAUGCAGGGGUCUAAAACUGAGCGGAUAACCUCUCUAUGG RNA 2: GGGAAUGGAUCCACAUCUACGAAUUCGUACCAUAGAGAGGUUAUCCGCUCAACCCGAGAUCGGAAGAGCACACGU	8.5 ± 0.6
target 1 insA 3' of 2,insU 3' of 1 (mixed) RNA 1: CACCCGUGCAAAAAUGCAGGGGUCUAAAACUGAGCGGAUAACCUCUCUAUGG RNA 2: GGGAAUGGAUCCACAUCUACGAAUUCGUACCAUAGAGAGGUUAUCCGCUCAAUCCGAGAUCGGAAGAGCACACGU	10.5 ± 0.6
target 1 insG 3' of 7,insC 3' of 3 (mixed) RNA 1: CACCCGUGCAAAAAUGCAGGGGUCUAAAACUGAGCGGAUAACCUCUCUAUGG RNA 2: GGGAAUGGAUCCACAUCUACGAAUUCGUACCAUAGAGAGGUUAUCGCGCUCCACCGAGAUCGGAAGAGCACACGU	6.68 ± 0.19
target 1 U3A,G15C (mixed) RNA 1: CACCCGUGCAAAAAUGCAGGGGUCUAAAACUGAGCGGAUAACCUCUCUAUGG RNA 2: GGGAAUGGAUCCACAUCUACGAAUUCGUACCAUAGACAGGUUAUCCGCACACCGAGAUCGGAAGAGCACACGU	32.9 ± 2.5
target 1 insA 3' of 2,insA 3' of 2 (mixed) RNA 1: CACCCGUGCAAAAAUGCAGGGGUCUAAAACUGAGCGGAUAACCUCUCUAUGG RNA 2: GGGAAUGGAUCCACAUCUACGAAUUCGUACCAUAGAGAGGUUAUCCGCUCAAACCGAGAUCGGAAGAGCACACGU	9.6 ± 0.4
target 1 C7G,C22G (mixed) RNA 1: CACCCGUGCAAAAAUGCAGGGGUCUAAAACUGAGCGGAUAACCUCUCUAUGG RNA 2: GGGAAUGGAUCCACAUCUACGAAUUCGUAGCAUAGAGAGGUUAUGCGCUCACCGAGAUCGGAAGAGCACACGU	38 ± 6
target 1 U3G,G12C (mixed) RNA 1: CACCCGUGCAAAAAUGCAGGGGUCUAAAACUGAGCGGAUAACCUCUCUAUGG RNA 2: GGGAAUGGAUCCACAUCUACGAAUUCGUACCAUAGAGAGCUUAUCCGCGCACCGAGAUCGGAAGAGCACACGU	8.1 ± 0.9
target 1 insG 3' of 10,insG 3' of 9 (mixed) RNA 1: CACCCGUGCAAAAAUGCAGGGGUCUAAAACUGAGCGGAUAACCUCUCUAUGG RNA 2: GGGAAUGGAUCCACAUCUACGAAUUCGUACCAUAGAGAGGUUGAGUCCGCUCACCGAGAUCGGAAGAGCACACGU	8.8 ± 0.5
